Measured values as given in patent US9925134B2, “Use of substances to protect FGF-2 or FGF-beta growth factor” (BASF Beauty Care Solutions France SAS, priority 2007, dated 2018).

Experiments:
[1] = molecular target: FGF-2 (Homo sapiens, UniProt P09038); test: Study of thermal degradation (stability) of FGF-2 at various temperatures with or without heparin, ELISA; type: physicochemical; conditions: without heparin
Procedure: A 5 ng/ml solution of FGF-2 in a 10 mM PBS buffer with 0.1% BSA and 0.1% of methylparaben is prepared.
This solution is placed at various temperatures: 4° C., 20° C., 37° C., 50° C., and 80° C. either in the presence of heparin or not at 500 μg/ml.
Dosages of FGF-2 with a commercial ELISA kit (R&D system, France) are performed at different times (T=0, 3 hrs, 24 hrs and 48 hrs) so as to establish degradation kinetics for each temperature of investigation.
The results are expressed as a percentage of FGF-2 relative to time T=0. The experiments are conducted in triplicates (n=3). The obtained results are illustrated in FIGS. 1 and 2.

[2] = 37° C.; neutral pH; cited from earlier work
[3] = tested on: normal human dermal fibroblasts; test: Fibroblast proliferation by FGF-2 protected by heparin or extract 5c (PNPP); type: cell-based; conditions: for Proliferation (expressed as percent relative to the non-treated well): 48 hrs, heparin 0.01% during 24 hrs at 37° C.
Procedure: A solution of FGF-2 is prepared extemporaneously (=non-degraded FGF-2); a solution of FGF-2 is placed for 24 hrse at 37° C. in the absence (=degraded FGF-2) and in the presence of heparin (=FGF-2+heparin at 37° C.) at 0.01%.
Each FGF-2 solution is diluted so as to be applied on the cells, the final FGF-2 concentrations being the following: 0.1, 0.25, 0.5, 0.75 and 1 ng/ml.
Normal human dermal fibroblasts were sown at low density in 6-well plates. They were then grown in a medium in the absence (control) or in the presence of FGF-2 at various concentrations.
After 48 hrs, the activity of intracellular acid phosphatases (PNPP) is dosed, so as to be able to evaluate the effect of FGF-2 solutions, either treated or not, on cell proliferation.
The results are expressed as a proliferation percentage relative to the control well i.e. to the non-treated well.
The same experiment was conducted by replacing heparin with extract 5c. The FGF-2 solution put into the presence of 0.5% of extract 5c is placed for 24 hrs at 37° C. The solution is then diluted so as to apply 0.5 ng/ml of FGF-2 in the wells containing the fibroblasts.
The 5c extract concentration finally applied on the cells is 0.0025%. It was checked beforehand that this 5c extract concentration was not capable of inducing stimulation of the proliferation of fibroblasts. This means that the observed stimulation of proliferation is actually due to the protection of FGF-2 by extract 5c (see Table 8).

[4] = molecular target: T1, cathepsin G (Homo sapiens, UniProt P08311); test: Degradation kinetics of FGF-2 by cathepsin G; type: biochemical; conditions: for FGF-2 concentration in the presence of cathepsin G / FGF-2 concentration Temperature control: 37° C.; for FGF-2 concentration in the presence of cathepsin G: cathepsin G 0.02 U per well; for FGF-2 concentration Temperature control: enzyme-free; for Degradation % in the presence of cathepsin G: relative to temperature control
T1 sequence (P08311 21-244): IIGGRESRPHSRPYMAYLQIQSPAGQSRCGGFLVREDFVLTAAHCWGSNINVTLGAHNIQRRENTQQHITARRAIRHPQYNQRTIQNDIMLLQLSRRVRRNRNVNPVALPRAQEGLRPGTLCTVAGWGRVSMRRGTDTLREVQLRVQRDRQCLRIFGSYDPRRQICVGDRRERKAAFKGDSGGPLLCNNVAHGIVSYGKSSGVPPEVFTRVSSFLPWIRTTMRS
Procedure: For this reason, a study of the degradation of FGF-2 by cathepsin G was conducted. Degradation kinetics was carried out in a 100 mM Hepes buffer, pH7 containing 0.1% BSA. Cathepsin G was added into the wells of the plate at a concentration of 0.02 U per well to a 2 ng/well FGF-2 solution. The plate was incubated at 37° C. and sampling was performed at 15, 30, 60, 90 and 120 minutes in order to dose the remaining FGF-2.
The control (100%) is made by extemporaneous dosage of FGF-2. At the same time, an enzyme-free control solution is placed at 37° C. in order to study thermal degradation at the different times, so as to get rid of this degradation due to temperature and to quantify the portion only due to enzymatic degradation.

Sequence of FGF-2 (P09038 143-288): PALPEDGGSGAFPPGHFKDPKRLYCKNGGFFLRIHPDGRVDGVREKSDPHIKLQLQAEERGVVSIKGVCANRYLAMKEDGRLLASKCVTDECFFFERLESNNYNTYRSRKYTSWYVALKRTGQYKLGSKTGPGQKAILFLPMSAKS

FGF-2 concentration in the presence of cathepsin G ([4]; 0 minutes): 339.05 ± 7.43 pg/mL
Degradation % in the presence of cathepsin G ([4]; 0 minutes): 13.29%
FGF-2 concentration in the presence of cathepsin G ([4]; 15 minutes): 295.61 ± 8.49 pg/mL
Degradation % in the presence of cathepsin G ([4]; 15 minutes): 8.95%
FGF-2 concentration in the presence of cathepsin G ([4]; 30 minutes): 248.04 ± 1.97 pg/mL
Degradation % in the presence of cathepsin G ([4]; 30 minutes): 14.77%
FGF-2 concentration in the presence of cathepsin G ([4]; 60 minutes): 203.67 ± 1.13 pg/mL
Degradation % in the presence of cathepsin G ([4]; 60 minutes): 27.5%
FGF-2 concentration in the presence of cathepsin G ([4]; 90 minutes): 141.94 ± 5.14 pg/mL
Degradation % in the presence of cathepsin G ([4]; 90 minutes): 45.55%
FGF-2 concentration in the presence of cathepsin G ([4]; 120 minutes): 131.36 ± 2.49 pg/mL
Degradation % in the presence of cathepsin G ([4]; 120 minutes): 45.6%
Substance: FGF-2: Fibroblast Growth Factor; non-degraded = solution of FGF-2 prepared extemporaneously
FGF-2 degraded (percentage relative to T=0) ([1]; 4° C., 48 hrs): 20%
FGF-2 degradation (percentage relative to T=0) ([1]; 37° C., 3 hrs): 65%
FGF-2 degraded (percentage relative to T=0) ([1]; 37° C., 24 hrs): 80%
FGF-2 degradation (percentage relative to T=0) ([1]; 50° C., 3 hrs): 80%
FGF-2 degradation (in words) ([1]; 80° C., 3 hrs): total degradation
half-life time of FGF-2 in vitro [2]: about 24 hours
Proliferation (as a percentage) of fibroblasts relative to the non-treated control ([3]; FGF-2 0.5 ng/ml, 0.5% 5c extract during 24 hrs at 37° C. (0.0025% on the cells)): 148.5% ± 0.007
Proliferation (expressed as percent relative to the non-treated well) ([3]; FGF-2 concentration 0.1 ng/ml): 116.7 ± 0.012%
Proliferation (expressed as percent relative to the non-treated well) ([3]; FGF-2 concentration 0.25 ng/ml): 138.7 ± 0.005%
Proliferation (expressed as percent relative to the non-treated well) ([3]; FGF-2 concentration 0.5 ng/ml): 148.5 ± 0.007%
Proliferation (expressed as percent relative to the non-treated well) ([3]; FGF-2 concentration 0.75 ng/ml): 163.2 ± 0.005%
Proliferation (expressed as percent relative to the non-treated well) ([3]; FGF-2 concentration 1 ng/ml): 160 ± 0.003%
FGF-2 concentration Temperature control ([4]; 0 minutes): 391.8 ± 3.64 pg/mL
FGF-2 concentration Temperature control ([4]; 15 minutes): 324.99 ± 1.7 pg/mL
FGF-2 concentration Temperature control ([4]; 30 minutes): 291.83 ± 2.4 pg/mL
FGF-2 concentration Temperature control ([4]; 60 minutes): 280.64 ± 3.23 pg/mL
FGF-2 concentration Temperature control ([4]; 90 minutes): 259.81 ± 4.9 pg/mL
FGF-2 concentration Temperature control ([4]; 120 minutes): 241.67 ± 1.97 pg/mL
